Assay: soluble on expression in E. coli; label from the status in PepcDB or PDB records

| Sequence | soluble on expression in E. coli |
| --- | --- |
| GMELQDTIFKRQSVRKFKNQDVSDEDILKMIKAAGAAPSGKNIQNWHFVVIKRRDLMEKIADVITKKQQEILVEMDKVSVDKANRFRKFVKNFTLFYLKAPVLVLVFTKVYNPSGYYELELIDAPKETIDKLFIRNPGMQSLGAAIENFTLSAIELGYGSCWLTSQNYAADEIEAVLEAETGFEKGEYFLGAMLALGVPEDNLKSPSKKPVEEICTFIK | soluble |
| GMGKGKSAIESQIRMLKLAKEIVEEVASSFPNLEEVYIFGSRARGDYLDTSDIDILFVFKGIKEMNVFDRMYMVSRFIRGNVDYIVLDEGEKDRVKDKVLFWKREKGFVLL | soluble |
| GMGYTLAEFLAHAIALETEAAERYVELADMMEAHNNLDTATVFRDMARFSTLHGDEIKQRSRALELPKLMSWQYRWKTPPEVGDENDIHYLMTPYHALRYARDNEIRGMEYYKEAAANSADPEVKRLGADFAAEEAEHVVALDKWIEKTPRPSITWSEDADPAQCVD | soluble |
| GMHVYESDVSWIDDRRTEVSVGDHRIEVDSPPEFGGPEGQLYPETLFPSVLASCLLTTFLEFKDRMGINLKSWNSHVTAELGPSPEKGFKFHRIKIHVKIGVNDEDKEKIPRAMQLAEKYCFISRAIRNNVEEIVDYEFV | soluble |
| GMIPIVDSRIGAYLDGLLPEADPVVAAMEQIARERNIPIVDRQTGRLLYLLARIKQPQLVVVPGDGLGCASWWFARAISISSRVVMIDPDRDNVEHARRMLHDNGLIDRVELQVGDPLGIAAGQRDIDILFMDCDVFNGADVLERMNRCLAKNALLIAVNALRRGSVAESHEDPETAALREFNHHLSRRRDFFTTIVPVGNGVLLGYRLS | soluble |
| GMKCNDKLAPFEVFDHVVNKKLSFRHVTMDDVDMLHSWMHEEHVIPYWKLNIPLVDYKKHLQTFLNDDHQTLMVGAINGVPMSYWESYWVKEDIIANYYPFEEHDQGIHLLIGPQEYLGQGLIYPLLLAIMQQKFQEPDTNTIVAEPDRRNKKMIHVFKKCGFQPVKEVELPDKIGLLMKCEQNVFEKRWSDWKMNKF | soluble |
| GMKDTDETAFLNSLFMDFTSENELELFLKSLDEVWSEDLYSRLSAAGLIRHVISKVWNKEQHRISMVFEYDSKEGYQKCQEIIDKEFGITLKEKLKKFVFKIHNNRGVVVSEFIRST | soluble |
| GMKNVTKASIDDLDSIVHIDIDVIGNDSRRNYIKHSIDEGRCVIVKEDNSISGFLTYDTNFFDCTFLSLIIVSPTKRRRGYASSLLSYMLSHSPTQKIFSSTNESNESMQKVFNANGFIRSGIVENLDEGDPEIIFYTKKLRA | soluble |
| GMKTNEVLETIKARRSVRAYDRKQIPADDLNAILEAGAYAPSGMHYETWHFTAVCNTVKLEELNERIKGAFAKSDDKHLRERGHSETYCCYYHAPTLVIVSNEPKQWWAGMDCACAIENMFLAATSLGIASCWINQLGTTCDDPEVRAYLTSLGVPENHKVYGCVALGYKAEGALLKEKTVKAGTITIVE | soluble |
| GMKVLPVKQYLIMENYNPDTIFNGIVKINSNEKTFDDEILAQIGGALHDIDESWELLLSFANTIRSNWEIKTPAYDIVRLIVKKLPYSSDIKDYIEEGLGNKNITLTMLTVRILVNCFNNENWGVKLLESNQVYKSIFETIDTEFSQASAKQSQNLAIAVSTLIFNYSALVTKGNSDLELLPIVADAINTKYGPLEEYQECEEAAYRLTVAYGNLATVEPTLRQFANSVTWLANIKRSYGNVPRFKDIFDDLS | soluble |
| GMMFKWPWKADDESGNAEMPWEQALAIPVLAHLSSTEQHKLTQMAARFLQQKRLVALQGLELTPLHQARIAMLFCLPVLELGIEWLDGFHEVLIYPAPFIVDDEWEDDIGLVHNQRVVQSGQSWQQGPVVLNWLDIQDSFDASGFNLVVHEVAHKLDTRNGDRASGVPLIPLREVAGWEHDLHAAMNNIQDEIDLVGESAASIDAYAATDPAECFAVLSEYFFSAPELFAPRFPALWQRFCHFYRQDPLARRRENGLQDEGDRRIVH | soluble |
| GMNAIRYTKRECKDEKKITEFLNKARTGFLGLSTNDQPYVIPLNFVWHNHAIYFHGASEGRKIKMIEANPEVCFTICEDLGTIVSPVPAHTDTAYMSVIIFGTIEPVSAIEEGTEAMQQMLDKYVPGYYHSPLAASHVEKYRSSLGSRTAIYKISCRERTAKVNEPIESLKFYPGRNVSVDKDSR | soluble |
| GMNNLYHLKVRCSSLHKIIGEPKSKADKEAGKLTDTAKSAVREMAKFDLFGYNAFEGNKYTQKGNELEEQAIKLSGVTRGLALKKNTERRENEFITGECDIYVPSRKLIIDTKCSWDIGSHPFFTDEAQEKAKKAGYDIQMQGYMWLWDCDQAQIDFVLFPTPLNLISAYDSDFKLIDLVEQIPQIRRITTVIIQRDNELIDKIKERVSAAQKYYDQLISEMS | soluble |
| GMNSDIIVADFWKNNEEILTDFDKDSFCESWTENEMWSIEFKVAQTPKNAHCYSFLDYESSVYFRGQEFVVKQLSHDAVGKTLSKDIRAPHIYYTCQDGRQDDAITGSFTLEQCLTHIFKTDNRGFSWEIIDPSNILEKVQQENFGNNNYLTLIDQLLDDYGVVVIPDNRHLVFKPREIYGAKTENFIRYKYNTDEASFDIDTLSLKTKIKGYGKVDSNGNNYFSPITYTSPEVEKWGIRWQEPVSDERYTVAGNMQRRLKLELQDYPATTGSVILKNDYECEKGDYVLFIYEPLGIDYDVQIVAYKKYPFTIKAPEITLSNNKKSIVSIMAQLAKVLKGAK | soluble |
| GMPEIHQSIAQHYHERTKYDPETIASKSQRLDWAKQPVPFKEYKIGSAIDLKPYLQETPEVFVNDTNGQWWQRLSRLLFRSYGLTARMPSMGNTVYLRAAPSAGGLYPAEVYVVSRGTPLLSPGLYNYQCRTHSLIHYWESDVWQSLQEACFWHPALESTQLAIIVTAVFYRSAWRYEDRAYRRICLDTGHLLGNIELSAAITDYRPHLIGGFIDEAVNDLLYIDPLQEGAIAVLPLADLLDIQQNISPGCTALPSATETNYPQVPDGELLKYFHHHTQISASITGKLNLPTVIQEKSLEDKYNFPFCLKISTVSAPIYWGENLSDLEITMHKRRSTRAYNGEELTFDELKALLDFTYQPQNYIDQSLDNSPDYFDLNLIETFIAVCGVQGLEAGCYYYAPKAQELRQIRFKNFRRELHFLCLGQELGRDAAAVIFHTSDLKSAIAQYGDRVYRYLHMDAGHLGQRLNLAAIQLNLGVSGIGGFFDDQVNEVLGIPNDEAVIYITTLGRPR | soluble |
| GMQTTEIDLRLTEVSQQLTMVLVPGLRDSDDEHWQSHWERRFPHWQRIRQREWYQADLDRWVLAIRRELSVCTQPVILIGHSFGALAACHVVQQGQEGIAGVMLVAPAEPMRFEIDDRIQASPLSVPTLTFASHNDPLMSFTRAQYWAQAWDSELVDVGEAGHINAEAGFGPWEYGLKRLAEFSEILIPNR | soluble |
| GMSDQRYNLRGVSASKEDVHNAIKNIDKGIFPKAFCKIIPDILGGDPEYCNIMHADGAGTKSSLAYMYWKETGDLSVWKGIAQDALIMNIDDLLCVGAVDNILVSSTIGRNKLLVPGEVISAIINGTDELLAELREMGVGCYATGGETADVGDLVRTIIVDSTVTCRMKRSDVIDNKNIQGGDVIVGLASSGQATYEKEYNGGMGSNGLTSARHDVFSKYLAKKYPESYDAAVPKELVYSGGLKLTDKIEELGIDAGKMVLSPTRTYAPVIKVLLDKLRSQIHGMVHCSGGAQTKVMHFVENKRVTKDNLFPIPPLFRTIQEQSGTDWSEMYKVFNMGHRMEIYIAPEHAEEVIGISKSFGIDAQIVGFVEEADKNELIIESEKGRFTY | soluble |
| GMSESNRQRATGLVQAYYEAFNRGDWDAMLAFLAEDVAHDLNQGPREIGRAAFASFLQRMNDSYREQLRDIVVTANDEGTRVGAEYVVHGVYHTTDEGLPDANGQTYVLPGGAFFDVRDGQITRVTNYYNLQEWIAQVSR | soluble |
| GMSHSLKDFLEACETLGTLRLIVTSSAAVLEARGKIEKLFYAELAKGKYANMHTEGFEFHLNMEKITQVKFETGEAKRGNFTTYAIRFLDEKQESALSLFLQWGKPGEYEPGQVEAWHTLKEKYGEVWEPLPVQL | soluble |
| GMSSSDRYMQRGVSSQKEDVHKAIKSIDKGIYPRAFCKIIPDILGGDPEYCNIMHADGAGTKSSLAYVYWKETGDISVWKGIAQDAVIMNIDDLICVGAVDNILLSSTIGRNKNLIPGEVLAAIINGTEEVLQMLRDNGIGIYSTGGETADVGDLVRTIIVDSTVTCRMKRQDVISNENIKAGNVIVGFASYGQTSYETEYNGGMGSNGLTSARHDVFNNVLASKYPESFDPKVPENLVYSGEMNLTDPYLNVPLDAGKLVLSPTRTYAPLMKEIIHQYKGKLDGVVHCSGGGQTKVLHFTDATTHIIKDNLFDVPPLFQLIQGQSNTPWEEMYKVFNMGHRLEIYTDAAHAEGMIAIAKKFNIEAKIIGRVEAPVAGKRLTITGPQGTEYTYA | soluble |
| GMTALRQDIDPNGLLEYSVVYTDRALNHMSKAFQEVMNDLLSNLKTVYNAEAAVIIPGSGTYGMEAVARQLTIDEDCLIIRNGWFSYRWTQILEKGKFAKSSTVLTAERTEDTEAPKPFAPVDIETAVAKIKEDKSAIVYAPHVETSSGIILSEEYIKALSEAVHSVGGLLVIDCIASGCVWLDMKELGIDVLISAPQKGWSSTPCAGLVMLSAAAIKKVESTESNCFSLDLKQWLTIMRAYENGGHAYHATMPTDSLRQFRDAILEAKEIGFDILRDAQWELGNRVRKVLTDKGIESVAAEGFEAPGVVVSYTERDDMHKGSAFAEAGLQIAAGVPLKVGEPDNFKTFRLGLFGLDKLTDIDGTVERFEKALDEVLAK | soluble |
| GMTQTTPQPDPSRLRDELVRLHGKASPEWDSLVRLDPRFVDAYLKFAGVPQRRNHLDDKTRAFIALAADACATQLYAPGVARHIERALSFGATREELIEVLELVSTIGIHTSNVGVPVLLEVLEEEGLRKGAPPLDERRQKLKAEFETNRGYWHPTWEGLLELDPDLFEAYVEFSSVPWRTGVLSPKIKEFMYCAFDASATHLYVPGLKLHIRNALRYGATAEELMELLEIVSVTGIHGAELGAPLLEAALKRSGAAAGEPHA | soluble |
| GMVGINTDTENISELLKTYWSIQRISAGYADQNAASLGLTIQQLAMINVIYSTPGISVADLTKRLIITGSSAAANVDGLISLGLVVKLNKTIPNDSMDLTLKLSKKGEDLSKRSTANAFMYKAMMKVFENLTENEIEELIRLNKKVETLLKKSK | soluble |
| GNFGWSSYLTYSLNRNKVVELLRNYEDPYTHELTSLDRIDMGGTSMYKMILTEGGSIGDIYVNTLRTDEHGAIYVHPSDQVVVTQPDEFVKAGNSAPKYNLGWGNTFSYKGLSLGFLFTARVGGVVVSQTQATMDAYGSSKATAIARDNGGAIVNGRPIGAEDYYTKIGGAGAQGGIGSMYTYSATNVRLAELSLGYDIPINKYVDWIKGLNVSFIGKNLFFLYRKAPFDPELTASTGTYFQGIDMFMSPSLRNLGFSVKVNF | not soluble |
| GNMDSKAVEELSATECHQWYKKFMTECPSGQLTLYEFKQFFGLKNLSPSANKYVEQMFETFDFNKDGYIDFMEYVAALSLVLKGKVDQKLRWYFKLYDVDGNGCIDRGELLNIIKAIRAINRCNEAMTAEEFTNMVFDKIDINGDGELSLEEFMEGVQKDEVLLDILTRSLDLTHIVKLIQNDGKNPHAPEEAEEAAQ | soluble |
| GPGPAIGEVIGISVNDPRVKEIAEFALKQHAEQNLILAGVDAGQIIKGIPHWDNYYNLILSAKHSPHEFSKFYNVVVLEKASDNSLKLVAFVPLF | soluble |
| GPGSMAEEKIKIIVVGSVKSGKTTITNFLSGTRETATSKYYETNPLRIVETEIELDSMNFTDRRVVFSGGDAKTKRVLVQIWDLSGNSKHQAGWPAVANKADGIIFVFNPALKNGEKELSLWHKTFAVNQSELDALGNFAVRVPDKHCLVFAHHSTPPSNVAGEGLPSMPKGLEKIKVLETSLDYHSDNFKAAFDKLIESIVVARMEAEEDEVLQREGRMHF | soluble |

— the DeepSol protein solubility set
